Assay results reported in patent US20030220285A1.

Biological target: purified HLA-A2.1 molecules (human)

Row | Substance | IC50
1 | HBV Pol 551-A (native HBV pol 551-559) peptide […] (peptide; other documents disagree on this pair) | 200 nM
2 | HBV Core 18 (HBV core 18-27) peptide […] (peptide; other documents disagree on this pair) | 3 nM
